Read-outs that look alike come from different tables or passages of the source. No end group written: not given here. *: point of attachment. FITC = O=C1OC2(c3ccc(O)cc3Oc3cc(O)ccc32)c2ccc(NC(=S)*)cc21
Columns and labels:
[1] = target: RXR/RAR LBD heterodimer (mouse RXRα LBD with human RARα LBD) (human | mouse) (UniProt P10276); experiment: fluorescence polarisation
[2] = target: RXR/RAR LBD heterodimer (mouse RXRα LBD with human RARα LBD) (human | mouse) (UniProt P10276); experiment: fluorescence polarisation; remark: listed apart in the source
[3] = target: T1, RARα ligand-binding domain (RAR LBD) (human, UniProt P10276-1 176-421); experiment: fluorescence polarisation
T1 sequence: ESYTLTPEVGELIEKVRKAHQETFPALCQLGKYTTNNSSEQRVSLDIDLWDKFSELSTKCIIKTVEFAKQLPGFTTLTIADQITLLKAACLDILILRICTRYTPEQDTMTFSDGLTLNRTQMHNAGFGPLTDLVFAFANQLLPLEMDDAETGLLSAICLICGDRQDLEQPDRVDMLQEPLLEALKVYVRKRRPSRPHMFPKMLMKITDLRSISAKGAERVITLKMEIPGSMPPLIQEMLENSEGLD

[4] = target: T1, RARα ligand-binding domain (RAR LBD); experiment: crystal structure
[5] = target: T1, RARα ligand-binding domain (RAR LBD); experiment: crystal structure; remark: listed apart in the source

Q: Which results are given for “TIF2 nuclear receptor interaction domain (TIF2_(NRID)), residues 624-773, wild type (domain or fragment)”?
A: Kd [1]: 200 nM; Kd [2]: 1340 nM; fold decrease of Kd against the apo heterodimer [2]: 9 fold

B1: SRC1 NR2 peptide (RHKILHRLLQEGS), unlabelled (peptide)
peptide: RHKILHRLLQEGS
Q: Does B1 bind [3]?
A: binds

B2: TIF2 NR2 peptide (KHKILHRLLQDSS), unlabelled (peptide)
peptide: KHKILHRLLQDSS
Q: Does B2 bind [3]?
A: binds

B3: SRC1 NR2-Ext peptide (RHKILHRLLQEGSPSDITTLSVEPDKK) (peptide)
peptide: RHKILHRLLQEGSPSDITTLSVEPDKK
Q: Does B3 bind [4]?
A: binds

B4: FITC-SRC1 NR2 peptide (FITC-LTERHKILHRLLQEGSP) (peptide)
peptide: {FITC}-LTERHKILHRLLQEGSP
Q: Does B4 bind [3]?
A: binds

B5: TIF2 NR2-Ext peptide (K686-K713), unlabelled (peptide)
peptide: KHKILHRLLQDSSSPVDLAKLTAEATGK
Q: Does B5 bind [5]?
A: binds

Reference: paper doi:10.1101/2020.10.28.359091 (bioRxiv, 2020)
